Results as given in publication PMC4304707, “Regulation of Oncogene Expression in T-DNA-Transformed Host Plant Cells”.

Biological target: T1, 6xHis-WRKY40 (Arabidopsis thaliana, UniProt Q9SAH7 1-302)
T1 sequence: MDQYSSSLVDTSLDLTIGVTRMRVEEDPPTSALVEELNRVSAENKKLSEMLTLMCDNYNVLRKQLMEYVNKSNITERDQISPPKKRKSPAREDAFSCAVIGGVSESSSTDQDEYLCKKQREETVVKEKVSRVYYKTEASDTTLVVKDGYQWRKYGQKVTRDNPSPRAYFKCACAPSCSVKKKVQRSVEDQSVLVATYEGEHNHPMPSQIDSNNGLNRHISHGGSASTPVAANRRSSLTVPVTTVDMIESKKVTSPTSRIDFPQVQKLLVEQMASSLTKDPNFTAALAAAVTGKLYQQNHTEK
Assay: EMSA; 150 ng weak band, 300 ng much stronger band; about 5 ng probe; unlabeled probe competitor significantly reduced binding
Conditions: protein: recombinant; tags: N-terminal 6xHis (pET28b, NdeI/XhoI); label: 32P 5' end (T4 PNK); blunt (implied by two complementary oligonucleotides)

B1: Ipt promoter probe (-184 to -135) (dsDNA)
DNA 1: GATTTAGTCAGCCTTATTTGACTTAAGGGTGCCCTCGTTAGTGACAAATT
DNA 2: AATTTGTCACTAACGAGGGCACCCTTAAGTCAAATAAGGCTGACTAAATC
binding result: binds
